Laboratory results reported in US20190016826A1 (Genentech, published 2019).

Experiments:
[1] = target: T1, Protease domain of human HtrA1 (HuHtrA1_PD), residues D161-K379 (human, UniProt F1N152 168-386 (bovine entry)); assay: SPR (BIAcore T100), single-cycle kinetics, biotinylated HuHtrA1_PD captured on streptavidin, Fab in solution
T1 construct: Expressed in E. coli; not shown: thrombin cleavage site between tag and D161
Procedure: (§1) Briefly, series S sensor chip CM5 was activated with EDC and NHS reagents according to the supplier's instructions, and streptavidin (Pierce) was coupled to achieve approximately 2000 response units (RU), followed by blocking unreacted groups with 1M ethanolamine.
(§2) The sensorgrams were recorded and evaluated by BIAcore™ T100 Evaluation Software (version 2.0) after subtraction of reference cell signal. Association rates (kₒₙ) and dissociation rates (koff) were calculated using a simple one-to-one Langmuir binding model. The equilibrium dissociation constant (KD) was calculated as the ratio […] (see Table 1 below).

[2] = target: Protease domain of murine HtrA1 (MuHtrA1_PD) (G156-S367) (murine, UniProt Q9R118 156-367); assay: SPR (BIAcore T100), single-cycle kinetics, biotinylated MuHtrA1_PD captured on streptavidin, Fab in solution
Sequence of Protease domain of murine HtrA1 (MuHtrA1_PD) (G156-S367) (Q9R118 other isoform, or with tags, fused parts or gaps): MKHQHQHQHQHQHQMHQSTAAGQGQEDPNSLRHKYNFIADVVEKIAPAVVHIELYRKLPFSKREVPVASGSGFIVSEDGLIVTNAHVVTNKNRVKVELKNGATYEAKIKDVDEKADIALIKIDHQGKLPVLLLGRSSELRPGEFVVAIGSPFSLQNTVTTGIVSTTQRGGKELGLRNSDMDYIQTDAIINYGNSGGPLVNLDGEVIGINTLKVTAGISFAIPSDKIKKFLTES
Procedure: as §1, §2

HuHtrA1_PD(T223A) = target: T2, HuHtrA1_PD(T223A) (human, UniProt F1N152 168-386 (bovine entry)); assay: ELISA on plate-coated HuHtrA1_PD mutants (Example 7); column head on the sheet reads YW505.94 Fab, legend paragraph 70 says IgG94
T2 construct: Alanine mutant of HuHtrA1_PD; also called HuHtrA1 mutant T223A; not shown: thrombin cleavage site
T2 chain: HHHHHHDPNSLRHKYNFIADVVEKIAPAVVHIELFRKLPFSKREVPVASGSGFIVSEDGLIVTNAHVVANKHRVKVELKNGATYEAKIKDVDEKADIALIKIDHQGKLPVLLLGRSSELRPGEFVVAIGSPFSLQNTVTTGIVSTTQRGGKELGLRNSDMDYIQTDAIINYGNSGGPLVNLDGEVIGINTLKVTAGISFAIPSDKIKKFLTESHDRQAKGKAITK
Procedure: The mutants were expressed in E. coli and the trimers purified by size exclusion chromatography as described in Example 2. Binding was determined using an ELISA assay, which was conducted using a MAXISORP™ microtiter plate coated with HuHtrA1_PD mutants at 2 μg/ml in PBS for 1 h, followed by blocking with PBST buffer (0.5% BSA and 0.05% Tween 20 in PBS) for 1 h at room temperature. […] The plates were washed with PBT buffer (0.05% Tween 20 in PBS), and HRP-conjugated goat anti-human IgG (H+L) (Invitrogen) was added (1:5000 in PBST buffer) and incubated for 1 h. The plates were washed with PBT buffer and developed by adding tetramethylbenzidine substrate (Kirkegaard and Perry Laboratories, Gaithersburg, Md.). The absorbance at 450 nm was plotted as a function of antibody concentration in solution to determine EC₅₀ values.
In trypsin-like serine proteases these loops are known to be part of the specificity determining region that interacts with substrates.

- Kd [1]: 31.1 nM
- koff [1]: 0.0109 s⁻¹
- kon [1]: 350000 M⁻¹ s⁻¹
- Kd [2]: 28.9 nM
- koff [2]: 0.0129 s⁻¹
- kon [2]: 450000 M⁻¹ s⁻¹
- EC50 (HuHtrA1_PD(T223A)): 62.9 nM
- Relative to WT EC50 Fold Decrease (HuHtrA1_PD(T223A)): 11.2 fold
B1: Fab94 (anti-HtrA1 antibody YW505.94, Fab format) (Fab, V domains shown)
VH: EVQLVESGGGLVQPGGSLRLSCAASGFNISGYYIHWVRQAPGKGLEWVGWIDPYGGDTNYADSVKGRFTISADTSKNTAYLQMNSLRAEDTAVYYCARGTFLTSWGHYFDYWGQGT
VL: DIQMTQSPSSLSASVGDRVTITCRASQDVSTAVAWYQQKPGKAPKLLIYSASFLYSGVPSRFSGSGSGTDFTLTISSLQPEDFATYYCQQSYTTPPTFGQGTKVEIKR
